The values that follow come from PMC3799435, “Dissecting the interactions of SERRATE with RNA and DICER-LIKE 1 in Arabidopsis microRNA precursor processing” (Nucleic Acids Research, 2013).

Common to all, as to conditions: both partners purified
Experiment [1] deals with T1, DICER-LIKE 1 (DCL1), untagged recombinant (Arabidopsis thaliana, UniProt Q9SP32 1-1909).
T1 construct: DICER-LIKE 1 (DCL1) of Arabidopsis thaliana, 214 kDa; cDNA amplified with primers from the start codon to the stop codon; one silent mutation introduced; no extra residues at the N-terminus after SUMOstar protease; also called native DCL1; source: Sf9 insect cells (baculovirus), purified (Ni-NTA, StrepTrap, SUMOstar protease, Ni-NTA flow-through, Superdex 200); not shown: His6, N-terminal, …
T1 sequence (Q9SP32 whole entry): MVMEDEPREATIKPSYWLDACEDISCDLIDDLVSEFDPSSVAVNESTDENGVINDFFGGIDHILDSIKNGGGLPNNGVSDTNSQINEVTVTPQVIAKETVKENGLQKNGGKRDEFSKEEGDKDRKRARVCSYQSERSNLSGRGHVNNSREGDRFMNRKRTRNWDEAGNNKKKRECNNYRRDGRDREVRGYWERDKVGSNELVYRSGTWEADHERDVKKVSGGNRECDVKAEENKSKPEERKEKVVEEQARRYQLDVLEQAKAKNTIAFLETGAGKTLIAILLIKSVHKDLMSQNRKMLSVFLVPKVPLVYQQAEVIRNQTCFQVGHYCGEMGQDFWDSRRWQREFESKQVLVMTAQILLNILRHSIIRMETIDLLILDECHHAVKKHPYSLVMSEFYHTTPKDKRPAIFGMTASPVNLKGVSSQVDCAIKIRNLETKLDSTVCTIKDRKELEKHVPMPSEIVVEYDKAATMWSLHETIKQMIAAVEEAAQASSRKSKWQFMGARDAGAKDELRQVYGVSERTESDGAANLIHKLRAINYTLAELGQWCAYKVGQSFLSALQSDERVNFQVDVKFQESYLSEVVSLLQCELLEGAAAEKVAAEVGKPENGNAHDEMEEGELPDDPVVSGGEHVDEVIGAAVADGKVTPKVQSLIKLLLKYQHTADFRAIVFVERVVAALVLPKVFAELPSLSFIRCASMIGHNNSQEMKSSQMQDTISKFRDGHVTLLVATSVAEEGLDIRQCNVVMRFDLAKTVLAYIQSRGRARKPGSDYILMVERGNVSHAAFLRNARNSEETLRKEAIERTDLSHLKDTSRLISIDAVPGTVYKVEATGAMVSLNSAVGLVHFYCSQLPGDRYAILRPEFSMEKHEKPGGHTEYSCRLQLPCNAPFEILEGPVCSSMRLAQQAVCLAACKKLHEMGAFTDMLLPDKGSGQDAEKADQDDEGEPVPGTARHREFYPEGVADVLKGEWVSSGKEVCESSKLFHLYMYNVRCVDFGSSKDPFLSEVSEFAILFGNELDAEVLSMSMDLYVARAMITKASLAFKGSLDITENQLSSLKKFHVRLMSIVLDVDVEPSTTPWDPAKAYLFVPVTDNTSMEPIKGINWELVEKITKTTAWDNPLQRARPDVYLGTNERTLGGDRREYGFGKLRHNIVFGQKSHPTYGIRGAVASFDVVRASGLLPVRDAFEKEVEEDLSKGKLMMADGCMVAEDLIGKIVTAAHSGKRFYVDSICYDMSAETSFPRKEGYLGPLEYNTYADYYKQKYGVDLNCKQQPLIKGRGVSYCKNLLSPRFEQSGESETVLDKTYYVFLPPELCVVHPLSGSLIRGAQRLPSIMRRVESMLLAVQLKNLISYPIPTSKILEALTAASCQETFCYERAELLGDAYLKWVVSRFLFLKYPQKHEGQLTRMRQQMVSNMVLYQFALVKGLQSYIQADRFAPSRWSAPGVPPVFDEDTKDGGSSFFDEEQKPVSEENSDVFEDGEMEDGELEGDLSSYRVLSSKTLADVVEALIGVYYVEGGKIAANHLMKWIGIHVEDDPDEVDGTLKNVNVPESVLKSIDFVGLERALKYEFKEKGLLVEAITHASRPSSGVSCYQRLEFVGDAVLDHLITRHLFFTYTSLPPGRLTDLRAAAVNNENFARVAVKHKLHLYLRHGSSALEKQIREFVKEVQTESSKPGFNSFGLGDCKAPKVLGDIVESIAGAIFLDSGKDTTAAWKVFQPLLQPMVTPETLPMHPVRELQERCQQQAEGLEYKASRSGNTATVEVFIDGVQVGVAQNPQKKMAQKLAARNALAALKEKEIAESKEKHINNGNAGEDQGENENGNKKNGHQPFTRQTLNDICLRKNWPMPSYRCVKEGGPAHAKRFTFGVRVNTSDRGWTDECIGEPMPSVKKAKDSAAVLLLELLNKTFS
Briefly: SPR; Biacore T100; 1750 RU of DCL1 immobilised via amine groups on a CM5 chip; SE injected for 70 s at 20 nM; 20 mM Tris-HCl (pH 7.0), 2 mM β-ME, 0.005% surfactant P20, 50 mM or 150 mM NaCl. (In SPR one partner is held on a chip, and binding of the other changes the refractive index at the surface.)

The target in experiment [2] is T1, DICER-LIKE 1 (DCL1), untagged …. Description: SPR; Biacore T100; about 1750 RU of DCL1 immobilised via amine groups on a CM5 chip, no RNA; SE and its mutants injected for 70 s at 20 nM; 20 mM Tris-HCl (pH 7.0), 50 mM NaCl, 2 mM β-ME, 0.005% surfactant P20.
The target is the same in experiment [3]. Briefly: SPR; Biacore T100; about 1200 RU of DCL1 (injected at 16 nM) bound beforehand to 60 RU of biotin-labelled forked RNA on an SA chip; SE and its mutants then injected for 70 s at 20 nM; 20 mM Tris-HCl (pH 7.0), 50 mM NaCl, 2 mM β-ME, 0.005% surfactant P20; RU of mutants normalised to the RU of DCL1 bound.

B1: SERRATE (SE), untagged recombinant (natural protein, Arabidopsis thaliana, UniProt Q9ZVD0 1-720, looked up)
chain: MADVNLPPSDSVDNRLPEKSTSSSPPPPPPSSSLPQQEQEQDQQQLPLRRERDSRERRDERDIERPPPNRRERDRSPLPPPRRDYKRRPSLSPPPPYRDRRHSPPQRRSPPQKRYRRDDNGYDGRRGSPRGGYGPPDRRFGYDHGGGYDREMGGRPGYGDERPHGRFMGRYQDWEGGRGGYGDASNSGNPQRDGLMSYKQFIQELEDDILPSEAERRYQEYKSEYITTQKRAFFNTHKEEDWLKNKYHPTNLLSVIERRNDLAQKVAKDFLLDLQSGTLDLGPAVTALNKSGRTSEPNSEDEAAGVGKRKRHGMGGAKENELLSAAPKAPSFTSDPKRILTDVEQTQALVRKLDSEKKIEENVLQGSETEKSGREKLHSGSTGPVVIIRGLTSVKGLEGVELLDTLVTYLWRVHGLDYYGKVETNEAKGLRHVRAEGKVSDAKGDENESKFDSHWQERLKGQDPLEVMAAKEKIDAAATEALDPHVRKIRDEKYGWKYGCGAKGCTKLFHAAEFVYKHLKLKHTELVTELTTKVREELYFQNYMNDPNAPGGQPATQQSGPRDRPIRRKPSMENRLRDDRGGRRERDGRANGNDRNDRSEDQQRGDNDGGNPGEVGYDAFGGQGGVHVPPFLSDINPPPMLMPVPGAGPLGPFVPAPPEVAMQMFRDPSGPNPPFEGSGRGGPAPFLLSPAFRQDPRRLRSYQDLDAPEEEVTVIDYRSL
notes: SERRATE (SE) of Arabidopsis thaliana, 81 kDa, 720 amino acids; cDNA amplified with primers from the start codon to the stop codon; also called native SE; untagged SE; source: Sf9 insect cells (baculovirus), purified (Ni-NTA, StrepTrap, SUMOstar protease, Ni-NTA flow-through, Superdex 200); not shown: His6, N-terminal, cleaved; Strep-tag II, N-terminal, cleaved; SUMOstar, N-terminal, cleaved
With B1, in experiment [1], the “fold reduction in RUmax from 50 to 150 mM NaCl” value is 5 fold.

B2: N-terminally hexahistidine-tagged wild-type SERRATE (SE) (natural protein, Arabidopsis thaliana, UniProt Q9ZVD0 1-720, looked up)
chain: B1 chain
notes: SERRATE (SE) of Arabidopsis thaliana, 720 amino acids; tagged protein 86 kDa; primers from the start codon to the stop codon; myc tag and Strep tag II were inserted in the NotI site of the modified pENTR-D/TOPO vector, then moved to pDEST10; also called His-tagged SE; hexahistidine-tagged SE; source: Sf9 insect cells (baculovirus), purified (TALON, Superdex 200); not shown: His6, N-terminal, kept
Consider B2, for which the figures for the “stoichiometry N” value in experiment [2] and in experiment [3] were 0.7 SE:DCL1 molar ratio and 2.4 SE:DCL1 molar ratio, respectively.

B3: SE1–701, C-terminally truncated hexahistidine-tagged SERRATE (domain or fragment, Arabidopsis thaliana, UniProt Q9ZVD0 1-701, looked up)
chain: MADVNLPPSDSVDNRLPEKSTSSSPPPPPPSSSLPQQEQEQDQQQLPLRRERDSRERRDERDIERPPPNRRERDRSPLPPPRRDYKRRPSLSPPPPYRDRRHSPPQRRSPPQKRYRRDDNGYDGRRGSPRGGYGPPDRRFGYDHGGGYDREMGGRPGYGDERPHGRFMGRYQDWEGGRGGYGDASNSGNPQRDGLMSYKQFIQELEDDILPSEAERRYQEYKSEYITTQKRAFFNTHKEEDWLKNKYHPTNLLSVIERRNDLAQKVAKDFLLDLQSGTLDLGPAVTALNKSGRTSEPNSEDEAAGVGKRKRHGMGGAKENELLSAAPKAPSFTSDPKRILTDVEQTQALVRKLDSEKKIEENVLQGSETEKSGREKLHSGSTGPVVIIRGLTSVKGLEGVELLDTLVTYLWRVHGLDYYGKVETNEAKGLRHVRAEGKVSDAKGDENESKFDSHWQERLKGQDPLEVMAAKEKIDAAATEALDPHVRKIRDEKYGWKYGCGAKGCTKLFHAAEFVYKHLKLKHTELVTELTTKVREELYFQNYMNDPNAPGGQPATQQSGPRDRPIRRKPSMENRLRDDRGGRRERDGRANGNDRNDRSEDQQRGDNDGGNPGEVGYDAFGGQGGVHVPPFLSDINPPPMLMPVPGAGPLGPFVPAPPEVAMQMFRDPSGPNPPFEGSGRGGPAPFLLSPAFRQDPRRLRS
notes: No cleavage step of the tag is described in the purification; also called C-terminal domain deletion; source: Sf9 insect cells (baculovirus), purified (TALON, Superdex 200)
Take B3: the binding result in experiment [2] is given as “binds”.
